We go through 167 variants from the RNAGym collection of RNA variant scans (doi:10.7554/elife.80360).

B1: Hammerhead Ribozyme (parent)
chain: ACCGGAUGUGCUUUCCGGUCUGAUGAGUCCGUGAGGACGAAACAG

In this data set the parent is B1. As to the kind of experiment: self-cleavage, relative activity (ratio to wild type); higher = more cleavage; co-transcriptional.
Consider G8A A40U, for which the self-cleavage came out at 0.343.
The figure for G8A A40C is 0.683; for G8C U32A it is 1.28; for G8C U32G it is 1.23.
Regarding G8C U32C, the self-cleavage worked out at 1.46.
The figure for G8C C11G is 1.25; for G8C C11U it is 1.02.
For the variant G8C C11A, the self-cleavage was determined as 1.43.
With G8C A44U, the self-cleavage amounted to 0.56.
As for G8C A44C, the self-cleavage is 0.608.
As for G8C A44G, the self-cleavage was 1.47.
The figure for G8C A26U is 0.827.
Then G8C A26G, with 0.278; and G8C A26C, with 0.434; and G8A U28G, with 1.16.
Then G8A U28A, with 0.738; and G8A U28C, with 1.36; and G8U G10A, with 1.47.
In the case of G8U G10U, the self-cleavage worked out at 1.04.
In the case of G8U G10C, the self-cleavage is 1.07.
Then G8A G31U, with 1.14; and G8A G31A, with 0.849; and G8A G31C, with 0.889.
The figure for G8C G39A is 0.347; for G8C G39C it is 0.407.
In the case of G8C G39U, the self-cleavage worked out at 0.441.
Then G8U C15G, with 0.637; and G8U C15A, with 0.884; and G8U C15U, with 1.05.
The figure for G8A C15A is 0.937; for G8A C15U it is 0.835.
Then G8A C15G, with 0.957; and G8U G33U, with 1.07.
On to G8U G33A, for which the self-cleavage amounted to 0.938.
Then G8U G33C, with 0.57.
Then G8C U13A, with 1.41.
Then G8C U13C, with 1.2.
With G8C U13G, the self-cleavage was found to be 1.19.
The figure for G8A A37C is 1.06.
Then G8A A37G, with 0.966; and G8A A37U, with 0.731.
Then G8U G22A, with 0.37.
Consider G8U G22U, for which the self-cleavage was 0.348.
The figure for G8U G22C is 0.354; for G8A A41G it is 0.331.
Then G8A A41U, with 0.323; and G8A A41C, with 0.353; and G8A U14G, with 0.988.
With G8A U14C, the self-cleavage came out at 0.975.
Then G8A U14A, with 0.866; and G8A C16U, with 1.13; and G8A C16A, with 1.2.
In the case of G8A C16G, the self-cleavage turned out to be 1.03.
The figure for G8U G35C is 0.842; for G8U G35A it is 0.811; for G8U G35U it is 0.616.
For G8A U21A, the self-cleavage was 0.475.
Then G8A U21G, with 0.4.
With G8A U21C, the self-cleavage was found to be 0.742.
Then G8C C38G, with 0.596.
Then G8C C38A, with 0.8; and G8C C38U, with 0.979.
Then G8U G17C, with 0.509; and G8U G17A, with 0.652; and G8U G17U, with 0.964.
For the variant G8U G18C, the self-cleavage worked out at 0.513.
The figure for G8U G18A is 0.684.
Turning to G8U G18U, the self-cleavage stood at 0.779.
Take G8C: the self-cleavage is 1.06.
Then G8U, with 1.02; and G8A, with 1.05.
Then G8A G17C, with 0.493.
The figure for G8A G17U is 0.837; for G8A G17A it is 0.539; for G8A U9G it is 0.85.
For G8A U9A, the self-cleavage is 0.863.
The figure for G8A U9C is 1.33; for G8U C38G it is 0.887.
With G8U C38A, the self-cleavage was 0.774.
Then G8U C38U, with 0.893; and G8A G33C, with 0.949.
The figure for G8A G33U is 1.13.
Then G8A G33A, with 0.9; and G8A A44G, with 1.41.
For G8A A44C, the self-cleavage was 0.508.
The figure for G8A A44U is 0.648; for G8C A23U it is 0.328; for G8C A23G it is 0.376.
Then G8C A23C, with 0.45; and G8U C16U, with 1.27.
G8U C16G: the self-cleavage stood at 0.731.
Regarding G8U C16A, the self-cleavage came out at 0.908.
As for G8A U12C, the self-cleavage stood at 0.897.
The figure for G8A U12A is 1.09; for G8A U12G it is 1.25.
Then G8A U19C, with 0.489; and G8A U19G, with 0.448; and G8A U19A, with 0.402.
The figure for G8A C20A is 0.501; for G8A C20G it is 0.381.
On to G8A C20U, for which the self-cleavage amounted to 0.594.
With G8C C15A, the self-cleavage is 0.837.
The figure for G8C C15G is 0.469; for G8C C15U it is 1.26.
Regarding G8C G17U, the self-cleavage is 0.752.
The figure for G8C G17C is 0.397.
The figure for G8C G17A is 0.663.
Then G8U C29G, with 0.847; and G8U C29A, with 0.488; and G8U C29U, with 1.01.
On to G8C C30A, for which the self-cleavage is 0.708.
For G8C C30G, the self-cleavage turned out to be 0.886.
The figure for G8C C30U is 0.981; for G8C G36U it is 0.772; for G8C G36C it is 0.791.
Then G8C G36A, with 0.652.
Then U7G U28A, with 0.991; and U7G U28G, with 0.502.
As to U7G U28C, the self-cleavage worked out at 1.36.
The figure for G8U C43G is 0.333; for G8U C43A it is 0.254; for G8U C43U it is 0.677.
As to G8C G31A, the self-cleavage worked out at 1.06.
The figure for G8C G31C is 0.822.
Take G8C G31U: the self-cleavage was determined as 0.679.
Then G8U C30U, with 0.942.
The figure for G8U C30G is 0.942; for G8U C30A it is 0.803; for G8U C20A it is 0.571.
Then G8U C20G, with 0.392; and G8U C20U, with 0.551; and G8C A41C, with 0.312.
Take G8C A41U: the self-cleavage amounted to 0.388.
The figure for G8C A41G is 0.298; for U7G U19C it is 0.512; for U7G U19A it is 0.398.
The figure for U7G U19G is 0.304.
Then G8C G27U, with 0.519; and G8C G27C, with 0.63.
For G8C G27A, the self-cleavage was found to be 0.787.
The figure for G8A A26G is 0.371; for G8A A26C it is 0.577; for G8A A26U it is 0.899.
The figure for G8U A41G is 0.328; for G8U A41C it is 0.324.
The figure for G8U A41U is 0.34; for G8C G35U it is 0.775; for G8C G35C it is 0.726.
As for G8C G35A, the self-cleavage came to 0.769.
For the variant G8C C16U, the self-cleavage amounted to 1.32.
Then G8C C16G, with 0.511.
Take G8C C16A: the self-cleavage is 0.446.
Then G8U A40G, with 0.376; and G8U A40U, with 0.301.
Then G8U A40C, with 0.566; and G8U G36A, with 0.658; and G8U G36U, with 0.495.
The figure for G8U G36C is 0.885; for G8C A37G it is 1.2; for G8C A37C it is 1.05.
As for G8C A37U, the self-cleavage was 0.842.
The figure for G8U G25C is 0.302; for G8U G25A it is 0.317.
With G8U G25U, the self-cleavage was 0.391.
The figure for G8A G36C is 0.508; for G8A G36U it is 0.5.
Then G8A G36A, with 0.424.
